Measured values: US10752921B2, “Enzymes and methods for styrene synthesis” (Phytogene, Inc., priority 2012, dated 2020)

Key:
styrene production [1] = assay: Styrene production by FDC1 mutants from tCA (colorimetric screening, confirmed by HPLC); assay type: cell-based; settings: E. coli cells, tCA 1 g/L, 30° C. for 4 hours
Method: Saturation mutagenesis allows the change of one amino acid to 19 other alternative amino acid residues. […] The codon NNK has 32-fold degeneracy and encodes all 20 amino acids without rare codons. The QuikChange PCR products were examined by agarose gel electrophoresis and then 15 μl of PCR products were digested with 1 μl Dpnl (New England Biolabs) at 37° C. for 4 hours to remove the template plasmid. Aliquots of (2 μl) digestive products were transformed into BL21-Gold (DE3) competent cells (STRATAgene, CA) and inoculated on Luria-Bertani (LB) agar plates containing kanamycin. The quality of the library by DNA sequencing was confirmed. The library covers 90% of mutagenesis (17 mutants out of 19). To cover 100% (19 out of 19 mutant), we screened 150 mutants for each site.
The transformants (Example II.2) were inoculated in 96-well plates (NUNC, Roskilde, Denmark) containing 100 μl LB broth per well and incubated at 37° C., overnight. The cultures were then mixed with equal amount of 50% glycerol and stored at −80° C. as the master plate. An aliquot of 10 μl culture was inoculated in 2 ml deep-well plates (USA scientific) with 1 ml TB broth per well and incubated at 37° C. until the OD600 reached 1.0. The cultures were then induced by 0.2 mM IPTG and incubated at 18° C. for 20 hours with shaking at 250 rpm.
Cells were harvested and suspended with 0.25 ml PBS buffer at pH 7.0 and the substrate (tCA) was added at a final concentration of 1 g/L. The culture was incubated at 30° C. for 4 hours and the volatile product styrene was collected by using 96 well STRATA-X® reversed phase plate containing 10 mg polymer based resin (Phenomenex) on top of the culture plate (FIG. 19). To avoid styrene vapor diffusion, 96-square well silicone sealing mats with pre-slit were used between 96-well culture plate and 96 well STRATA-X® reversed phase plate. The product was collected by 200 μl propanol for each well and the amount of product was measured by colorimetric method.
Various chemicals were tested as an indicator for styrene detection, including NBP (4-nitrobenzyl-pyridine) as a preferred indicator. Styrene was mixed with cytochrome P450 BM-3 in 50 mM phosphate buffer pH 8.0. The styrene oxidation reaction was started by adding 0.2 mM NADPH, and the reaction mixture was incubated at room temperature for 5 minutes with shaking. The NBP solution was added to the mixture and incubated at room temperature for further 5 minutes with shaking which gives white precipitate. The tube or plate containing reaction mixtures were heated at 70° C. for 30 minutes and chilled on ice for 5 minutes. After adding Dimethylformamide (150 μl) and 25 μl of 1M K2CO3, the reaction mixture gave blue color that can be measured spectrophotometrically at 600 nm immediately. The […] of NBP reacts with the oxirane ring of styrene oxide to yield a blue chromophore a blue color that can be monitored spectrophotometrically at 600 nm.
The mutants showing higher activity were confirmed by HPLC using an ACQUITY UPLC BEH C18 column (1.7-μm, 2.1×50-mm, Waters, USA). The samples were resolved in 30% acetonitrile (A) with an increasing concentration gradient of acetonitrile (B) for 1 min, 95%; then to 1 min, 30%; at a flow rate of 1 ml/min. UV absorption was monitored at 254-, 280-, and 310-nm. The changed amino acid residues in the mutants showing the higher activity were confirmed by DNA sequence.

styrene production [2] = assay: Production of styrene from trans-cinnamic acid in E. coli BL-21 (DE3); assay type: cell-based; settings: fed 0.1% trans-cinnamic acid, 36 hours, STRATA X column
Method: The nucleotides encoding FDC wild type, FDC mutant (K190E), FDC (WT)-PAL fusion protein, and FDC (K190E)-PAL fusion protein were transformed in E. coli BL-21 (DE3). The cells were grown in LB at 30° C. for overnight. The cells were harvested and washed with M9 media. The cells were inoculated to 2.0 ml M9 media with the initial OD600 at 0.3 and were cultured at 30° C. until the OD600 of the culture reached to 0.6 to 0.8. The cells were then induced with 0.2 mM IPTG for 8.0 hours at 30° C. The cells transformed with FDC wild type and FDC (K190E) were fed with 0.1% trans-cinnamic acid. The cells transformed with FDC (WT)-PAL and FDC (K190E)-PAL fusion proteins were fed with either 0.1% trans-cinnamic acid or 0.1% L-phenylalanine. The fed cells were continuously cultured for 36 hours. STRATA X column was used to collect styrene. The product was eluted from the column by butanol and the amount was quantified by HPLC.

B1: K190E (protein)
chain: MRKLNPALEFRDFIQVLKDEDDLIEITEEIDPNLEVGAIMRKAYESHLPAPLFKNLKGASKDLFSILGCPAGLRSKEKGDHGRIAHHLGLDPKTTIKEIIDYLLECKEKEPLPPITVPVSSAPCKTHILSEEKIHLQSLPTPYLHVSDGGKYLQTYGMWILQTPDKKWTNWSIARGMVVDDKHITGLVIEPQHIRQIADSWAAIGKANEIPFALCFGVPPAAILVSSMPIPEGVSESDYVGAILGESVPVVKCETNDLMVPATSEMVFEGTLSLTDTHLEGPFGEMHGYVFKSQGHPCPLYTVKAMSYRDNAILPVSNPGLCTDETHTLIGSLVATEAKELAIESGLPILDAFMPYEAQALWLILKVDLKGLQALKTTPEEFCKKVGDIYFRTKVGFIVHEIILVADDIDIFNFKEVIWAYVTRHTPVADQMAFDDVTSFPLAPFVSQSSRSKTMKGGKCVTNCIFRQQYERSFDYITCNFEKGYPKGLVDKVNENWKRYGYK
- amount of styrene compared to that of wild type (in words) (styrene production [1]): significantly higher amount of styrene
- styrene produced compared to wild type (styrene production [1]): 3 times
- styrene produced (styrene production [2]): 758 mg/L
